Earlier results on 1 substance are cited in paper PMC3970081.

Broadly, the pKd is the Kd on a negative log10 scale, so that one unit is a factor of ten.

pKd: −log10 of the molar value.

This data set has as its target KIF5B tail (Rattus norvegicus) (UniProt Q2PQA9). The experiment in a line: SPR. (SPR reads the build-up and loss of mass on a sensor chip optically.)

Chain of Kv3.1 T1 domain (P25122 1-129): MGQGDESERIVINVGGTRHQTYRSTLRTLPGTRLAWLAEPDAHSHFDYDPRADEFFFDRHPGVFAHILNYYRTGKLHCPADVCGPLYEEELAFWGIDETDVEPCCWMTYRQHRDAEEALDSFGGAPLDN
Chain of KIF5B tail (Rattus norvegicus) (Q2PQA9 758-963): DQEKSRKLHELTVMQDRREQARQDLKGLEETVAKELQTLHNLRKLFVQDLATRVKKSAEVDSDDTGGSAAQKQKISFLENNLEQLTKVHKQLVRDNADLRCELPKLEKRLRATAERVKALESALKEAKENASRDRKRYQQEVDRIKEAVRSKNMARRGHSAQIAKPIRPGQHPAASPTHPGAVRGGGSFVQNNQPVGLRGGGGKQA

For Kv3.1 T1 domain (from UniProt P25122), the pKd was 7.22.
